pKd: −log10 of the molar value.

For one experiment, the target named is CD32b(Y163) (UniProt P31994). Kind of experiment: SPR. A general note: SPR reads the build-up and loss of mass on a sensor chip optically.
The target in the next experiment is FcRn (human) (UniProt P55899). As to the kind of experiment: SPR; pH 6.0.
Sequence of FcRn (human) (P55899 24-297): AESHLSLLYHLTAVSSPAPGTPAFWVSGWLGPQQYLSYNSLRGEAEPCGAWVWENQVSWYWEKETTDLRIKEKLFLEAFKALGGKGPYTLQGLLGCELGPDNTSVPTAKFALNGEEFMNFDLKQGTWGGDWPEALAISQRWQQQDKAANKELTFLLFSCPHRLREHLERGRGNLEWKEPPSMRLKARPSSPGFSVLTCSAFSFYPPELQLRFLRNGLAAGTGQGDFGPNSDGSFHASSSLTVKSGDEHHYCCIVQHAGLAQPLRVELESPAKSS

Sequence of CD32b(Y163) (P31994 43-217): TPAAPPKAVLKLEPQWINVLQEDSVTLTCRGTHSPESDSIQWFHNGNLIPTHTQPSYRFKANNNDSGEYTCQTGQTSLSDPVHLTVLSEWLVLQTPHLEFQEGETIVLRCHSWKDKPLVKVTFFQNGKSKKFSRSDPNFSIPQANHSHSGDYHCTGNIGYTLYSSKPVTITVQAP

Turning to Herceptin WT, the pKd with CD32b(Y163) was 5.77; with FcRn (human), 5.43.

As a reminder, the pKd is −log10 of the Kd, conventionally taken in molar units. Lower therefore signals a large Kd.

These data come from patent US20150284470A1.
